Type: physicochemical
Conditions: for MMAD / released dosage at the mouthpiece as share of the nominal value / released dosage: 0.1 mg/ml in physiological saline; for released dosage: at the mouthpiece; for time of aerosol release: corresponds to 30 strokes/breaths
Experimental: Aviptadil can be obtained, e.g., from Bachem AG, Bubendorf, Switzerland, in GMP quality.
The experimental procedure was carried out pursuant to Ph. Eur. 2.9.44 (Preparations for Nebulisation: Characterisation). A cascade impactor (Next Generation Impactor (NGI), Copley Scientific Ltd., Nottingham, UK) was used to determine the respective percentage for each fraction of the nebulized particles.
The thus generated aerosol was delivered to the cascade impactor by means of a mouthpiece (SK-211, NEBU-TEC, Eisenfeld, Germany).
The nebulization chamber (yellow stamp, 250 μl liquid discharge) was filled. The puff profile configured at the breath simulator was chosen in such a way that a correct simulation of inhalation by means of the nebulizer was ensured. The corresponding time was recorded.
Single values obtained for each cascade were added. […] MMAD, FPF and FPM were calculated from the obtained values: […]

| Molecule | MMAD | released dosage at the mouthpiece as share of the nominal value | released dosage | time of aerosol release |
| --- | --- | --- | --- | --- |
| Ac-Ser-Tyr-Ser-Met-Glu-His-Phe-Arg-Trp-Gly-Lys-Pro-Val-NH2 [α-melanocyte stimulating hormone] | 3.11 μm | 45% | 0.045 mg | 3 min |
| Colistin [reference compound] | 3.61 μm | 75% | 0.075 mg | 3 min |
| Gly-Leu-Ser-Lys-Gly-Cys-Phe-Gly-Leu-Lys-Leu-Asp-Arg-Ile-Gly-Ser-Met-Ser-Gly-Leu-Gly-Cys [C-type natriuretic peptide] | 3.37 μm | 77% | 0.077 mg | 3 min |
| His-Ser-Asp-Gly-Ile-Phe-Thr-Asp-Ser-Tyr-Ser-Arg-Tyr-Arg-Lys-Gln-Met-Ala-Val-Lys-Lys-Tyr-Leu-Ala-Ala-Val-Leu-Gly-Lys-Arg-Tyr-Lys-Gln-Arg-Val-Lys-Asn-Lys [PACAP-38] | 3.25 μm | 58% | 0.058 mg | 3 min |
| Ser-Pro-Lys-Met-Val-Gln-Gly-Ser-Gly-Cys-Phe-Gly-Arg-Lys-Met-Asp-Arg-Ile-Ser-Ser-Ser-Ser-Gly-Leu-Gly-Cys-Lys-Val-Leu-Arg-Arg-His [B-type natriuretic peptide] | 3.46 μm | 69% | 0.069 mg | 3 min |
| Tyr-Arg-Gln-Ser-Met-Asn-Asn-Phe-Gln-Gly-Leu-Arg-Ser-Phe-Gly-Cys-Arg-Phe-Gly-Thr-Cys-Thr-Val-Gln-Lys-Leu-Ala-His-Gln-Ile-Tyr-Gln-Phe-Thr-Asp-Lys-Asp-Lys-Asp-Asn-Val-Ala-Pro-Arg-Ser-Lys-Ile-Ser-Pro-Gln-Gly-Tyr [adrenomedullin] | 3.41 μm | 53% | 0.053 mg | 3 min |
| relaxin-3: human relaxin isoform, heterodimer of 51 amino acids, subunit 1 SEQ ID NO: 12 and subunit 2 SEQ ID NO: 13 | 3.36 μm | 49% | 0.049 mg | 3 min |
| interferon gamma: human cytokine of 17 kD, 138 amino acids, SEQ ID NO: 14 (protein, listed as Homo sapiens) QDPYVKEAENLKKYFNAGHSDVADNGTLFLGILKNWKEESDRKIMQSQIVSFYFKLFKNFKDDQSIQKSVETIKEDMNVKFFNSNKKKRDDFEKLTNYSVTDLNVQRKAIHELIQVMAELSPAAKTGKRKRSQMLFRG | 3.46 μm | 95% | 0.045 mg | 3 min |
| dornase alfa: recombinant human deoxyribonuclease I, polypeptide produced in CHO cells, comparative example (protein, UniProt P24855 23-282, looked up) Deoxyribonuclease-1: LKIAAFNIQTFGETKMSNATLVSYIVQILSRYDIALVQEVRDSHLTAVGKLLDNLNQDAPDTYHYVVSEPLGRNSYKERYLFVYRPDQVSAVDSYYYDDGCEPCGNDTFNREPAIVRFFSRFTEVREFAIVPLHAAPGDAVAEIDALYDVYLDVQEKWGLEDVMLMGDFNAGCSYVRPSQWSSIRLWTSPTFQWLIPDSADTTATPTHCAYDRIVVAGMLLRGAVVPDSALPFNFQAAYGLSDQLAQAISDHYPVEVMLK | 3.72 μm | 65% | 0.065 mg | 3 min |
